Measured values published in patent US20240254204A1 (NATIONAL UNIVERSITY OF SINGAPORE, published 2024).
Changes are numbered by the printed parent chain. Several values for one entry are separate records, joined by “and”; a condition that tells them apart may be missing. Identical values can stand only once.

Tests used:
Assay in all cases: cell-based or functional assay
[1] = target: SARS-COV-1 full-length spike (SARS-CoV)
WIV-1 full-length spike = WIV-1 full-length spike (SC1r-CoV WIV-1)
[2] = target: SARS-COV-2 Wuhan-hu-1 (ancestral) full-length spike (SARS-CoV-2)

Measured: pseudovirus neutralization NT50

B1: Antibody 11 (SS6V11-E7) (antibody, V domains shown)
VH: QVQLQESGPGLVKPSETLSLTCTVSGGFIGPHYWSWVRQPPGKGLEWIGYIYISGSTNYNPSLKSRLTISVDMSKSQFSLTLSSATAADTAVYYCARGGGYLETGPFEYWGQGTLVTVSS
VL: DIVMTQSPLSLPVTPGEPASISCRSSQSLLQNNGYNYLAWYLQKPGQSPQLLIYLSSTRASGVPDRFSGSGSGTDFTLKISRVEAEDVGVYYCMQSLQIPGTFGQGTRLEIK
< 10 ng/ml and < 0.067 nM: [1] | WIV-1 full-length spike | [2]

B2: Antibody 20 (SS6V20-F5) (antibody, V domains shown)
VH: QVQLQESGPGLVKPSETLSLTCTVSGGSIIGYYWSWIRQPPGKGLEWIGYIYFSANTNYNPSLKSRVTMSVDMSKKQFSLKLRSVTAADTAVYYCARGGGYLETGPLDFWGQGILVTVSS
VL: B1 VL with L30M, N32L, K44R, S56G, S81T, S96G
< 10 ng/ml and < 0.067 nM: [1] | WIV-1 full-length spike | [2]

B3: Antibody 13 (SS6V13-F1) (antibody, V domains shown)
VH: QVQLQESGPGLVKPSETLSLTCSVSGVSILGSYWGWIRQPPGTGLQWIGYIYFSENTNYNPSLQSRVTMSLDTSKNLLSLKLSSVTAADTAVYYCARGGGYLETGPFDSWGQGTLVTVSS
VL: B1 VL with S28G, L30V, N32S, S56G, T58N, S96G, I99T
< 10 ng/ml and < 0.067 nM: [1] | WIV-1 full-length spike | [2]
